Assay results as given in patent US10947270B2, “Targeted prodrug cytosine deaminase fusion carrier and application thereof” (National Yang-Ming University, priority 2015, dated 2021).
“And” between values parts separate entries of the source, which are not always exact repeats. Equal entries are not always repeated. Where two headings read alike, the source gives them in different places.

Tests used:
[1] = Enzyme kinetic analysis of yCD series proteins after DTPA modification, marking and purification; type: biochemical; settings: for Vmax compared with the original enzyme activity: after EDTA with a 10-fold molar excess of protein
Excerpt: The enzyme activity of yCD is not affected by DTPA modification.
FIGS. 24A-24B show the kinetic curve of yCD series protein modified, labeled and purified by DTPA. The enzyme activity of the two proteins is not affected by the labeling conditions. After adding EDTA with a 10-fold molar excess of protein, and it is competitively purified, In-DTPA-yCD compared with the original enzyme activity.
The curve and enzyme kinetic parameters (see FIG. 18 and Table 13) are fitted by the […] protein enzyme kinetics through the Michaelis-Menten formula in the Graph prism program.
Before the protein is labeled by radioisotope, its enzyme function must be determined, and based on the original enzyme function, it should be examined whether it will be affected during the radioactive marking process. The curve and enzyme kinetic parameters of protein are fitted by the Michaelis-Menten formula in the Graph prism program. […] Whether the yCD and RGD4C-yCD protein detected by the same method will be affected under the conditions of DTPA modification, marking and purification. […] After the completion of the radioactive metal mark, it is necessary to add EDTA of 10-fold protein Moire number and react at room temperature for 1 hour to compete for the radioactive metal isotope indium which is not chelated on DTPA. The EDTA in this step also has the chance to chelate the metal zinc ion of the enzyme catalytic center, the enzyme activity is impaired, so it is necessary to analyze the enzyme activity of In-DTPA-yCD and In-RGD4C-yCD protein after competition with EDTA. After the EDTA competitive reaction is completed, the enzyme kinetics analysis can be carried out by reducing the EDTA molecule weight through membrane centrifugation method and by replacing the solution with pH 7.0. […] The curve and receptor binding ability parameters of the protein and integrin αvβ3 are fitted under the conditions of DTPA modification, marking and purification by the One site-Specific binding formula in the Graph prism program (see FIG. 25 and Table 18). […] Although the two proteins after marking are greatly affected by the enzyme activity, they still have good binding ability to the integrin αvβ3 receptor. In consideration of the indispensability of EDTA for radiochemical purity, it retains a considerable amount of enzyme activity. In addition, the effect of integrin αvβ3 receptor binding ability is minimal, in combination of cell uptake, biodistribution and angiography experiment, focusing on the evaluation of target results, and the subsequent biological experiment is still carried out by the marking and purification conditions.

[2] = type: physicochemical
Protocol: The radiochemical purity of ^111In-DTPA-yCD and ^111In-DTPA-RGD4C-yCD are greater than 95% after marking and purification. Both are stored in HEPES buffer liquid (4° C.) for 48 hours, and the radiochemical purity is still higher than 85% (see FIG. 26). Both are placed in fetal bovine serum (37° C.) to simulate their stability in vivo. After 48 hours, the radiochemical purity of both is about 80%. It is shown that radioactive metal indium-111 is stably chelated on DTPA.

[3] = parameters: species or system nude mice; settings: mouse, in vivo
Protocol: The arrow is marked as a tumor.
In in-vitro cell experiment, the binding ability of ^111In-DTPA-RGD4C-yCD and the integrin αvβ3 receptor on the cell membrane has been verified. In order to know whether the drug can show its target effect in vivo, integrin αvβ3 is seeded subcutaneously in the right side of nude mice. After the high-expression U87MG tumor cells are grown to 100 mm^3, 60-70 μCi (3-3.5 μg) of ^111In-DTPA-yCD and ^111In-DTPA-RGD4C-yCD are injected directly into the tumor, the images are collected by microSPECT/CT after 1, 4, 24, 48 hours. It can be seen from the image (see FIG. 31) that the drug retention in the ^111In-DTPA-RGD4C-yCD group (orange arrow) is better than that in the ^111In-DTPA-yCD, and the target ligand RGD4C is missing. ^111In-DTPA-yCD enters the systemic blood circulation system within 1 hour and is metabolized by normal organs. From FIG. 31, it can be seen that the kidney is the main metabolic organ of these two drugs. […] After 24-48 hours, the amount of accumulation in the tumor is running out. On the contrary, ^111In-DTPA-RGD4C-yCD is bound with integrin αvβ3 on tumor cells, then the ratio of drug entering the systemic blood circulation is reduced, and the metabolic rate is slow.

[4] = parameters: species or system nude mice; settings: mouse, in vivo; remark: listed apart in the source
Protocol: ES-2-luc tumor nude mice is intraperitoneally injected with 50 μCi (2.5 μg) ^111In-DTPA-yCD and ^111In-DTPA-RGD4C-yCD for 1, 4 and 24 hours, then organs are collected and their radioactivity is measured to obtain biodistribution, as shown in Table 19 and Table 20. […] In addition to the part accumulated in the tumor, another part of the drug is absorbed back into the blood circulation system by the peritoneal blood vessels. […] The pancreatic radioactivity of the two drugs is observed after 1 hour of injection. The pancreatic radioactivity of ^111In-DTPA-RGD4C-yCD (8.06±0.88% ID/g) is higher than that of ^111In-DTPA-yCD (3.91±0.36% ID/g), it is suspected that tumor cells invade the pancreas.

[5] = after 10x EDTA competition and purification

B1: DTPA-yCD: yCD protein modified by the metal chelating agent DTPA (conjugate)
chain: MVVTGGMASKWDQKGMDIAYEEAALGYKEGGVPIGGCLINNKDGSVLGRGHNMRFQKGSATLHGEISTLENCGRLEGKVYKDTTLYTTLSPCDMCTGAIIMYGIPRCVVGENVNFKSKGEKYLQTRGHEVVVVDDERCKKIMKQFIDERPQDWFEDIGELEHHHHHH
With B1 the Km [1] was 840 µM and 1040 µM and the Vmax [1] was 286.8 ± 10.80 µM/min.

B2: In-DTPA-yCD: DTPA-yCD treated with the stable isotope of indium under simulated marking conditions (conjugate)
chain: B1 chain
In the case of B2, the Km [1] is reported as 1120 ± 58.7 µM, the Vmax [1] is reported as 270.0 ± 6.165 µM/min and the Km [1, 5] is reported as 1930 ± 286 µM. The Vmax [1, 5] was 125.2 ± 9.652 µM/min and the “Vmax compared with the original enzyme activity” value [1] was 47%.

B3: ^111In-DTPA-yCD: indium-111 labeled DTPA-yCD protein (conjugate, UniProt Q12178 1-158, looked up)
Cytosine deaminase: MVTGGMASKWDQKGMDIAYEEAALGYKEGGVPIGGCLINNKDGSVLGRGHNMRFQKGSATLHGEISTLENCGRLEGKVYKDTTLYTTLSPCDMCTGAIIMYGIPRCVVGENVNFKSKGEKYLQTRGHEVVVVDDERCKKIMKQFIDERPQDWFEDIGE
modifications: 111In-DTPA label
notes: indium-111 labeled DTPA-yCD protein
With B3 the “radiochemical purity after incubation” value [2] was “about 80%”, the “time to enter the systemic blood circulation system” value [3] was at most 1 h and the “radioactivity in the peritoneal cavity reduced to (fraction of 1 hour value)” value [4] was “½”.

B4: DTPA-RGD4C-yCD: RGD4C-yCD protein modified by the metal chelating agent DTPA (conjugate)
chain: MACDCRGDCFCVTGGMASKWDQKGMDIAYEEAALGYKEGGVPIGGCLINNKDGSVLGRGHNMRFQKGSATLHGEISTLENCGRLEGKVYKDTTLYTTLSPCDMCTGAIIMYGIPRCVVGENVNFKSKGEKYLQTRGHEVVVVDDERCKKIMKQFIDERPQDWFEDIGELEHHHHHH
For B4, the Km [1] was 1160 ± 108 µM, the Vmax [1] was 224.6 ± 8.408 µM/min and the “Vmax compared with the original protein” value ([1]; after DTPA modification) was 80%. For the same molecule, the Vmax ([1]; listed as DTPA- RGD4C-yCD) was 224.6 ± 8.408 µM/min.

B5: In-DTPA-RGD4C-yCD: DTPA-RGD4C-yCD treated with the stable isotope of indium under simulated marking conditions (conjugate)
chain: B4 chain
For B5, the Km [1] was 956 ± 76.8 µM, the Vmax [1] was 226.8 ± 6.918 µM/min and the Km [1, 5] was 1630 ± 273 µM. For the same molecule, the Vmax [1, 5] was 117.7 ± 9.510 µM/min and the “Vmax compared with the original enzyme activity” value [1] was 40%.
